This note sets out measurements from the nanobody polyreactivity screen of Harvey et al. (2022).

The nature of the data set: yeast display, Sf9 membrane polyspecificity reagent, FACS + sequencing; frameworks hold sequencing errors. The method in brief:
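Nanobodies from a synthetic yeast display library (Saccharomyces cerevisiae BJ5465), induced 36–48 hours with galactose, were stained 1 hour at 4 °C with 10% biotinylated, detergent-solubilized Sf9 membrane reagent, enriched on streptavidin microbeads, then FACS-sorted. Anti-HA (expression) and streptavidin (reagent binding) fluorescence set low and high (top ~1%) gates. Polyreactivity labels come from the gate of origin. Genes were colony-PCR amplified, MiSeq 2 × 250 sequenced and filtered by CDR length.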
Regarding “QVQLVESGGGLVQAGGSLRLSCAASGAIFFFNAMGWYRQAPGKEREFVAAITSSSGRTYYADSVKGRFTISRDNAKNSVYLQMNSLKPEDTAVYSCDADWAWLQWAYDYWGQGTKVTVSS”, the “polyreactivity (PSR sort gate)” value is listed as “low polyreactivity”.

“QVQLVESGGGLVQAGRSLRLSCAASGLIFPWNAMGWYRQAPGKQRELVAAINGRDGSTYYADSVKGRFTISRDNAKNTVYLQMNSLKPEDTAVYYCAKGPSGVRSYREYDSWGQGTQVTVSS”: the “polyreactivity (PSR sort gate)” value is “low polyreactivity”.

“QVQLVESGGGLVQAGGSLRLSCAASGFTFRRYAMGWYRLAPGKERELVAAISQSGGRTYYADSVKGRFTISRDNAKNTVYLQMNSLKPEDTAVYNFAKDAAGGRHYDYWGQGTQVTVSS”: the “polyreactivity (PSR sort gate)” value is on record as “high polyreactivity”.

Take “QVQLVESGGGLVQAGGSLRLSCAASGSIFYSNAMGWYRQAPGKERELVADISWSDGSTYYADSVKGRFTISRDNAKNNVYLQMNSLKPEDTAVYYCARKAGYSYFRRYDYWGQGTQVTVSS”: the “polyreactivity (PSR sort gate)” value is reported as “low polyreactivity”.

As to “QVHLVESGGGLVQAGGSLRLSCAASGIPLYFYAMGWYRQAPGKERELVAAISRGGRTYYADSVKGRFTISRDNAKYTVYLQMNSLKPEDTAVYYCAARYTSEYSAFDYWGQGTQVTVSS”, the “polyreactivity (PSR sort gate)” value is on record as “low polyreactivity”.

As for “QVQLVESGGGLVQAGGSLRISCAASGFIFTRYVMGWYSQAPGKERELVAGISTRGARTYYADSVKGRFTISRDNAKNTVYLQMNSLKPEDTAVYYCAKDYYKHYYWGQGTQVTVSS”, the “polyreactivity (PSR sort gate)” value was “high polyreactivity”.

Consider “QVQLVESGGGLVQAGGSLRLSCAASGFTFYRYAMGWYRQAPGKEREFVAVINIRGSTTYYADSVKGRFTISRDNAKNTVYLQMNSLKPEDTAVYYCARRYRGPYYSLPRRKEFDYWGQGTQVTVSS”, for which the “polyreactivity (PSR sort gate)” value is listed as “high polyreactivity”.

In the case of “QGQRVESGGGLVQAGGSLRLSCAASGSIFTYAMGGSRQAPGNERELGAAISRSGGRTYYADSGKGRFTISRDNAKNTVSLHMNSLKPEDTAVYYCAALLLKDYDYWGPGTQVTVSS”, the “polyreactivity (PSR sort gate)” value is reported as “low polyreactivity”.

Take “QVQLVESGGGLVQAGGSLRLSCAASGFTFYRNAMGWYRQAPGKERELVAAINYSGGSTYFADSVKGRFTISRDNAKNTVYLQMNSLKPEVTAVYYCAVPYNYYRYHYSGYDYWGQGTQVTVSS”: the “polyreactivity (PSR sort gate)” value is “high polyreactivity”.

As for “QVQLVESGGGLVQAGGSLRLSCAASGRIFPTNAMGWYRQAPGKERELVASIDSGGSTKYADSVKGRFTISRDNAKNTVYLLMNSLKPEDTAVYYRALQVLNYDYWGQGTQVTVSS”, the “polyreactivity (PSR sort gate)” value is listed as “low polyreactivity”.

With “QVQLVESGGGLVQAGGSLRLSCAASGVIFNRYAMGWYRQAPGKERELVAAISSGGNTHYADSVKGRFTISRDNAKNTDYLQMNSLKPEDTAVYYCAKAFRHSTFFAPYDYWGQGTQVTVSS”, the “polyreactivity (PSR sort gate)” value is “low polyreactivity”.

With “QVQLVESGGGLVQAGGSLRLSCSASGLTFYSNAMGWYRQAPGKERELVASISKRGATTYYADSVKGRFTISRDNAKNTVYLQMNSLKPEDTAVYYCAADLRITSYNSWGQGTQVTVSS”, the “polyreactivity (PSR sort gate)” value is on record as “low polyreactivity”.

With “QVQLVESVGGLVQAGGSLRLSSAASGLIFDVYPMGWYSQGPGKERELVAAISTSGGRTYYADSVKGRFTISRDNAKNTVYLQMTSLKPEDTAVYYCAAVSPHNRYGYKYDYWGQGTQVTVSS”, the “polyreactivity (PSR sort gate)” value was “high polyreactivity”.

Turning to “QVQLVESGGGLVQAGGSLRLSCAASGSIFFWYTRGWYRQEPGKERQLVATITGSGSSTTYADSVKGRFTISRDNAKNSVYLQMNSLKPEDTAVYYCAAADIIDHSFPYDYWGQGTQVTVSS”, the “polyreactivity (PSR sort gate)” value is “low polyreactivity”.

As to “QVQLVESGGGLVQAGGSLRLSCAASGFTFGTYTMGWYRQAPGKERELVAAISGSGGSTYYADSVKGRFTISRDNAKNTDYLQMNSLKPEDTAVYYCAAVGRSKRDGYWGQGTQVTVST”, the “polyreactivity (PSR sort gate)” value was “high polyreactivity”.

In the case of “QVQLVESGGGLVQAGGSLRLSCAASGSIFGNNAMGWYRQAPGKERELVAAISGSGGTRYADSVKGRFTISRDNAKNTVYFQLNSLKPEDTAVYYCSADDSWGGFHSPKAIGYDYWGQGTQVTVSS”, the “polyreactivity (PSR sort gate)” value was “low polyreactivity”.

For “QVQLVESGGGLVQAGGSLRLSCAASGRISSQYAMGWYRQAPGKERELVAAISTSGDRTYYADSVKGRFTISRDNAKNTVYLQMNSLKPEDTAVYYCAKDGPYTYGRDIYEYWGQGTQVTVSS”, the “polyreactivity (PSR sort gate)” value is recorded as “low polyreactivity”.

For “QVHLVESGGGLVQAGGSLRLSSAASGSIFGANAMGWYRQAPGKERELVAAITSGSGTNYADSVKGRFTISRDNSKNTVYLQMNSLKPEDTAVYSCAARHPYPIYDYWGQGTQVTVSS”, the “polyreactivity (PSR sort gate)” value is reported as “low polyreactivity”.

For “QVQLQESGGGLVKAGGSLRLSCAASGNISPRDAMGWYRQAPGEERDLVASNAYSAITYYADGVKGRYSISRDNAKNTVYLQMNSLKPEDTEVYYCAVYQFTYPVFPAYWGQGTQVSVSS”, the “polyreactivity (PSR sort gate)” value is “low polyreactivity”.

In the case of “QVQLVESGGGLVQAGGSLRLSCAASGSTFRYYAMGWYRQAPGKERELVASITSTGSTNYADSVKGRFTISRDNAKNTVYLQMNSLKPEDTAVYYCAAYRPYFGIAYGYWGQGTQVTVSS”, the “polyreactivity (PSR sort gate)” value is on record as “high polyreactivity”.

With “QVQLVESGGGLVQAGGSLRISCASSVRTFAWNAMGWYRQAPGKERELVAVITSGVSTNYADSVKGRFTISRDNANNTVYLQMNSLKPEDTAVYYCAARSWVYSVIGDNWGLGTQVTVSS”, the “polyreactivity (PSR sort gate)” value is reported as “low polyreactivity”.

Consider “QVQLVESGEGLVQAGGSLRLSCAASRRIFEYYFMGWYSQAPGKERELVAAMNRRGTSTYYADSVKGRFTISRDNAKNTVYLQMNSLKPEDTAVYYCAAVDRDYARTTTYDYWGQGTEVTVSS”, for which the “polyreactivity (PSR sort gate)” value was “high polyreactivity”.

With “QVQLVESGGGLVQAGGCLRLSCDASGFTFAFYAMGWYRQAPGKEIELVAAISRRGGSTTYADSVKGRFTISRDNAKNTVYLQMHSLKPEDTAVYYCNAVSTRNPGPDSYYWGQGTQVTVSS”, the “polyreactivity (PSR sort gate)” value is on record as “high polyreactivity”.

With “QVQLVESRGGLVQAGGSLRLSCAASGFIFTRYVMGWYRQAPGKERELVAGISTRGARTYYADSVKGRFTISRDNAKNTVYLQIHSLTPEDTAVYYCNKDWSRGWNYEYDYWGQGTQVTVSS”, the “polyreactivity (PSR sort gate)” value is “high polyreactivity”.

As to “QVQLVESGGGLVQAGGSLRLRCAASGSIFKTYAMGWYRQAPRKERELVAAITTSGGRTYYADSVKGRFTISRDNAKYTVYLQMNSLKPEDTAVYYCNADLFPGYVSYPEYDYWGQGTQVTVSS”, the “polyreactivity (PSR sort gate)” value is “low polyreactivity”.

For “QVQHVESGGGLVQAGGSLRLSCAASGITFGRNTMGWYRQAPGKERELVAAIDSGGNTYADSVKGRFTISRDNAKITVYLQMIRQKPEDTAVDSCAVDGGEFSSYGYWGQGTQVTVSS”, the “polyreactivity (PSR sort gate)” value was “low polyreactivity”.

Take “QVQLVESGGGLVQAGGSLRLSCAASGIIFAYYAMGWYRQAPGKERELVGTNYADSVKGRFTISRDNAKNTVFLQMNSLKPEDTAVYYCAVQGYGEYDYWGQGTQVTVSS”: the “polyreactivity (PSR sort gate)” value is listed as “low polyreactivity”.

As for “QVQLVESGGGLVQAGGSLRLSCAASGSTFTTNVMGWYRQAPGKERELVAAISWSSGSTYYADSVKGRFTISRDNAKNTVYLQMNSLKPEDTAVYYCAARLVIFYPYSRYYYWGQGTQVTVSS”, the “polyreactivity (PSR sort gate)” value is reported as “high polyreactivity”.

Turning to “QVQLVESGGGLVQAGGSLRLSCAASGSIFAYYAMGRNRQAPGKERELVAAITFSGVSTYYADSVKGRFTISRDNAKNTVYLQMNILKPEDTAVYYCAADPYQNYWWWYDYWGQGTQVTVSS”, the “polyreactivity (PSR sort gate)” value was “low polyreactivity”.

As for “QVQLVESGGGLVQAGGSLRLSCAASGRTFDVYAMGWYRQAPGKERELVAAISWSGGGTYYADSVKGRFTISRDNAKNTVYLQLTSLNPADTAVYSCAAALTFALDPNRYTYSDYYYWGQGTQVTVSS”, the “polyreactivity (PSR sort gate)” value is “low polyreactivity”.

With “QVQLVESGGGLDQAGGSLRLSCAASGNIVYNGMGWYRQAPGKERELVAAIRGSGGRTYADSVKGRFTISRDNAKNTVYLQMNSLKPEDTAVYYCATRRWYAYGVYYWGQGTQVTVSS”, the “polyreactivity (PSR sort gate)” value was “high polyreactivity”.

With “QVQLVESGGGLVQAGGSLRLSCAASGSILGQNGMGWYRQAPWKERELVAGITWSGGSTYYADSVKGRFTISRDNAKNTVYLQMNSLKPEDTAVYYCARRGYYAPYYYWGQGTQVTVSS”, the “polyreactivity (PSR sort gate)” value is given as “high polyreactivity”.

Regarding “QVQLVESGGGLVQAGGSLRLSCAASGSTFNNYAMGSYRQAPGKVREFVAAINGSGGSTYYADSVKGRFTISRDNAKNTVYLQLNSRKPEDPAVYYCAADVSATAYYDLMDYWVQGTQVTVSS”, the “polyreactivity (PSR sort gate)” value is listed as “low polyreactivity”.

“QVQLVESGGGLVQAGGSLRLSCAASGYIFDVNTMGWYRQAPGKERELVAVIRRGGSTTYADSVKGRFTISRDNAKNTVYLQMNSLKPEDTAVYYCNARVTLGRPLFTYLVRYEYWGQGTQVTVSS”: the “polyreactivity (PSR sort gate)” value is “high polyreactivity”.

In the case of “QVQLVESGGGLVQAGGILRLSCAASGSIVTDNAMGWYRQAPGKERELVAAITSSGNTNYADSVKGRFTISRDNAKNTVYLQINSLKPEDTAVYYCAADSYYKHWTDWLPVGEDYWGQGTQVTVSS”, the “polyreactivity (PSR sort gate)” value is given as “low polyreactivity”.

Turning to “QVQLVESGGGLVQAGGSLRLSCAASGRTFYWNAMGWYRQAPGKEREFVAAITNTAGSTYYADSVKGRFTISRDNAKNTVYLQMNSLNPEDTAVYYCAKSGNGGYRTYLRDYWGQGTQVTVSS”, the “polyreactivity (PSR sort gate)” value was “low polyreactivity”.

For the sequence “QVQLVESGGGLVQAGGSLRISCAASGNTFDYYTMGWYRQAPGKERDLVASIDWSTTTTYYADSVKGRFTISRDNAKTTVYLQMKSLKPEDTAVYYCNTVYDFYHLGLYSGFRYHYWGQGTQVTVSS”, the “polyreactivity (PSR sort gate)” value is on record as “low polyreactivity”.

Take “QVQLVESGGGLVQAGGSLRLSCAASGSTFPLYAMGWYRQAPGKERELVATITGSGGSTNYADSVKGRFTISRDNAKNTVYLQMNSLKPEDTAVYYCNARRRRLVSYYYWGQGTQVTVSS”: the “polyreactivity (PSR sort gate)” value is “high polyreactivity”.

As for “QVQLVESGGGLVQAGGSLRLSCAASGIIFASNGMGWYRQAPGKERELVAAISSGGSTNYADSVKGLFTISRDHAKNTVYLQMNSLKPEDTAVYYCAADRWDRDYDYWGQGTQVTVSS”, the “polyreactivity (PSR sort gate)” value is listed as “low polyreactivity”.

Take “QDQLVESGGGLVQAGGSLRLSCAASGSIFLYNAMGWYRQAPGKERELVADITSAGRTYYADSVKGRFTISRDNAKNTVYLQMNSLKPEDTAVYDCNKDYHYHFSWYGYWGQGTQVTVSS”: the “polyreactivity (PSR sort gate)” value is “low polyreactivity”.

Take “QVQLVESGGGLVQAGGSLRLSCAASGSTFGEYAMGWYRQAPGKERELVAAITSSGGSTYYADSVKGRFTISRDNAKNTVYLQMNSLKPEDTAVYYCAADWDYPYDEAVSKDIDYDYWGQGTQVTVSS”: the “polyreactivity (PSR sort gate)” value was “low polyreactivity”.
